Measured values published in publication PMC2783852 (Archives of biochemistry and biophysics, 2009).

Target: the molecule itself
Assay: SEC

B1: recombinant human apomanganese superoxide dismutase (enzyme, UniProt P04179 25-222, looked up)
chain: KHSLPDLPYDYGALEPHINAQIMQLHHSKHHAAYVNNLNVTEEKYQEALAKGDVTAQIALQPALKFNGGGHINHSIFWTNLSPNGGGEPKGELLEAIKRDFGSFDKFKEKLTAASVGVQGSGWGWLGFNKERGHLQIAACPNQDPLQGTTGLIPLLGIDVWEHAYYLQYKNVRPDYLKAIWNVINWENVTERYMACKK
B1 was tested, and the “stoichiometry N” value was 4.
